Measurements reported in US8642284.

B1: recombinant mSir2α mutant G253A (protein)
chain: MADEVALALQAAGSPSAAAAMEAASQPADEPLRKRPRRDGPGLGRSPGEPSAAVAPAAAGCEAASAAAPAALWREAAGAAASAEREAPATAVAGDGDNGSGLRREPRAADDFDDDEGEEEDEAAAAAAAAAIGYRDNLLLTDGLLTNGFHSCESDDDDRTSHASSSDWTPRPRIGPYTFVQQHLMIGTDPRTILKDLLPETIPPPELDDMTLWQIVINILSEPPKRKKRKDINTIEDAVKLLQECKKIIVLTAAGVSVSCGIPDFRSRDGIYARLAVDFPDLPDPQAMFDIEYFRKDPRPFFKFAKEIYPGQFQPSLCHKFIALSDKEGKLLRNYTQNIDTLEQVAGIQRILQCHGSFATASCLICKYKVDCEAVRGDIFNQVVPRCPRCPADEPLAIMKPEIVFFGENLPEQFHRAMKYDKDEVDLLIVIGSSLKVRPVALIPSSIPHEVPQILINREPLPHLHFDVELLGDCDVIINELCHRLGGEYAKLCCNPVKLSEITEKPPRPQKELVHLSELPPTPLHISEDSSSPERTVPQDSSVIATLVDQATNNNVNDLEVSESSCVEEKPQEVQTSRNVENINVENPDFKAVGSSTADKNERTSVAETVRKCWPNRLAKEQISKRLEGNQYLFVPPNRYIFHGAEVYSDSEDDVLSSSSCGSNSDSGTCQSPSLEEPLEDESEIEEFYNGLEDDTERPECAGGSGFGADGGDQEVVNEAIATRQELTDVNYPSDKS
B2: recombinant mSir2α mutant S257A (protein)
chain: MADEVALALQAAGSPSAAAAMEAASQPADEPLRKRPRRDGPGLGRSPGEPSAAVAPAAAGCEAASAAAPAALWREAAGAAASAEREAPATAVAGDGDNGSGLRREPRAADDFDDDEGEEEDEAAAAAAAAAIGYRDNLLLTDGLLTNGFHSCESDDDDRTSHASSSDWTPRPRIGPYTFVQQHLMIGTDPRTILKDLLPETIPPPELDDMTLWQIVINILSEPPKRKKRKDINTIEDAVKLLQECKKIIVLTGAGVAVSCGIPDFRSRDGIYARLAVDFPDLPDPQAMFDIEYFRKDPRPFFKFAKEIYPGQFQPSLCHKFIALSDKEGKLLRNYTQNIDTLEQVAGIQRILQCHGSFATASCLICKYKVDCEAVRGDIFNQVVPRCPRCPADEPLAIMKPEIVFFGENLPEQFHRAMKYDKDEVDLLIVIGSSLKVRPVALIPSSIPHEVPQILINREPLPHLHFDVELLGDCDVIINELCHRLGGEYAKLCCNPVKLSEITEKPPRPQKELVHLSELPPTPLHISEDSSSPERTVPQDSSVIATLVDQATNNNVNDLEVSESSCVEEKPQEVQTSRNVENINVENPDFKAVGSSTADKNERTSVAETVRKCWPNRLAKEQISKRLEGNQYLFVPPNRYIFHGAEVYSDSEDDVLSSSSCGSNSDSGTCQSPSLEEPLEDESEIEEFYNGLEDDTERPECAGGSGFGADGGDQEVVNEAIATRQELTDVNYPSDKS
B3: recombinant mSir2α mutant F265A (protein)
chain: MADEVALALQAAGSPSAAAAMEAASQPADEPLRKRPRRDGPGLGRSPGEPSAAVAPAAAGCEAASAAAPAALWREAAGAAASAEREAPATAVAGDGDNGSGLRREPRAADDFDDDEGEEEDEAAAAAAAAAIGYRDNLLLTDGLLTNGFHSCESDDDDRTSHASSSDWTPRPRIGPYTFVQQHLMIGTDPRTILKDLLPETIPPPELDDMTLWQIVINILSEPPKRKKRKDINTIEDAVKLLQECKKIIVLTGAGVSVSCGIPDARSRDGIYARLAVDFPDLPDPQAMFDIEYFRKDPRPFFKFAKEIYPGQFQPSLCHKFIALSDKEGKLLRNYTQNIDTLEQVAGIQRILQCHGSFATASCLICKYKVDCEAVRGDIFNQVVPRCPRCPADEPLAIMKPEIVFFGENLPEQFHRAMKYDKDEVDLLIVIGSSLKVRPVALIPSSIPHEVPQILINREPLPHLHFDVELLGDCDVIINELCHRLGGEYAKLCCNPVKLSEITEKPPRPQKELVHLSELPPTPLHISEDSSSPERTVPQDSSVIATLVDQATNNNVNDLEVSESSCVEEKPQEVQTSRNVENINVENPDFKAVGSSTADKNERTSVAETVRKCWPNRLAKEQISKRLEGNQYLFVPPNRYIFHGAEVYSDSEDDVLSSSSCGSNSDSGTCQSPSLEEPLEDESEIEEFYNGLEDDTERPECAGGSGFGADGGDQEVVNEAIATRQELTDVNYPSDKS
B4: recombinant mSir2α mutant I262A (protein)
chain: MADEVALALQAAGSPSAAAAMEAASQPADEPLRKRPRRDGPGLGRSPGEPSAAVAPAAAGCEAASAAAPAALWREAAGAAASAEREAPATAVAGDGDNGSGLRREPRAADDFDDDEGEEEDEAAAAAAAAAIGYRDNLLLTDGLLTNGFHSCESDDDDRTSHASSSDWTPRPRIGPYTFVQQHLMIGTDPRTILKDLLPETIPPPELDDMTLWQIVINILSEPPKRKKRKDINTIEDAVKLLQECKKIIVLTGAGVSVSCGAPDFRSRDGIYARLAVDFPDLPDPQAMFDIEYFRKDPRPFFKFAKEIYPGQFQPSLCHKFIALSDKEGKLLRNYTQNIDTLEQVAGIQRILQCHGSFATASCLICKYKVDCEAVRGDIFNQVVPRCPRCPADEPLAIMKPEIVFFGENLPEQFHRAMKYDKDEVDLLIVIGSSLKVRPVALIPSSIPHEVPQILINREPLPHLHFDVELLGDCDVIINELCHRLGGEYAKLCCNPVKLSEITEKPPRPQKELVHLSELPPTPLHISEDSSSPERTVPQDSSVIATLVDQATNNNVNDLEVSESSCVEEKPQEVQTSRNVENINVENPDFKAVGSSTADKNERTSVAETVRKCWPNRLAKEQISKRLEGNQYLFVPPNRYIFHGAEVYSDSEDDVLSSSSCGSNSDSGTCQSPSLEEPLEDESEIEEFYNGLEDDTERPECAGGSGFGADGGDQEVVNEAIATRQELTDVNYPSDKS
B5: recombinant mSir2α mutant G255A (protein)
chain: MADEVALALQAAGSPSAAAAMEAASQPADEPLRKRPRRDGPGLGRSPGEPSAAVAPAAAGCEAASAAAPAALWREAAGAAASAEREAPATAVAGDGDNGSGLRREPRAADDFDDDEGEEEDEAAAAAAAAAIGYRDNLLLTDGLLTNGFHSCESDDDDRTSHASSSDWTPRPRIGPYTFVQQHLMIGTDPRTILKDLLPETIPPPELDDMTLWQIVINILSEPPKRKKRKDINTIEDAVKLLQECKKIIVLTGAAVSVSCGIPDFRSRDGIYARLAVDFPDLPDPQAMFDIEYFRKDPRPFFKFAKEIYPGQFQPSLCHKFIALSDKEGKLLRNYTQNIDTLEQVAGIQRILQCHGSFATASCLICKYKVDCEAVRGDIFNQVVPRCPRCPADEPLAIMKPEIVFFGENLPEQFHRAMKYDKDEVDLLIVIGSSLKVRPVALIPSSIPHEVPQILINREPLPHLHFDVELLGDCDVIINELCHRLGGEYAKLCCNPVKLSEITEKPPRPQKELVHLSELPPTPLHISEDSSSPERTVPQDSSVIATLVDQATNNNVNDLEVSESSCVEEKPQEVQTSRNVENINVENPDFKAVGSSTADKNERTSVAETVRKCWPNRLAKEQISKRLEGNQYLFVPPNRYIFHGAEVYSDSEDDVLSSSSCGSNSDSGTCQSPSLEEPLEDESEIEEFYNGLEDDTERPECAGGSGFGADGGDQEVVNEAIATRQELTDVNYPSDKS
B6: recombinant mSir2α mutant G270A (protein)
chain: MADEVALALQAAGSPSAAAAMEAASQPADEPLRKRPRRDGPGLGRSPGEPSAAVAPAAAGCEAASAAAPAALWREAAGAAASAEREAPATAVAGDGDNGSGLRREPRAADDFDDDEGEEEDEAAAAAAAAAIGYRDNLLLTDGLLTNGFHSCESDDDDRTSHASSSDWTPRPRIGPYTFVQQHLMIGTDPRTILKDLLPETIPPPELDDMTLWQIVINILSEPPKRKKRKDINTIEDAVKLLQECKKIIVLTGAGVSVSCGIPDFRSRDAIYARLAVDFPDLPDPQAMFDIEYFRKDPRPFFKFAKEIYPGQFQPSLCHKFIALSDKEGKLLRNYTQNIDTLEQVAGIQRILQCHGSFATASCLICKYKVDCEAVRGDIFNQVVPRCPRCPADEPLAIMKPEIVFFGENLPEQFHRAMKYDKDEVDLLIVIGSSLKVRPVALIPSSIPHEVPQILINREPLPHLHFDVELLGDCDVIINELCHRLGGEYAKLCCNPVKLSEITEKPPRPQKELVHLSELPPTPLHISEDSSSPERTVPQDSSVIATLVDQATNNNVNDLEVSESSCVEEKPQEVQTSRNVENINVENPDFKAVGSSTADKNERTSVAETVRKCWPNRLAKEQISKRLEGNQYLFVPPNRYIFHGAEVYSDSEDDVLSSSSCGSNSDSGTCQSPSLEEPLEDESEIEEFYNGLEDDTERPECAGGSGFGADGGDQEVVNEAIATRQELTDVNYPSDKS
B7: endogenous mSir2α protein of mouse NIH3T3 cells (protein)
chain: ADEVALALQAAGSPSAAAAMEAASQPADEPLRKRPRRDGPGLGRSPGEPSAAVAPAAAGCEAASAAAPAALWREAAGAAASAEREAPATAVAGDGDNGSGLRREPRAADDFDDDEGEEEDEAAAAAAAAAIGYRDNLLLTDGLLTNGFHSCESDDDDRTSHASSSDWTPRPRIGPYTFVQQHLMIGTDPRTILKDLLPETIPPPELDDMTLWQIVINILSEPPKRKKRKDINTIEDAVKLLQECKKIIVLTGAGVSVSCGIPDFRSRDGIYARLAVDFPDLPDPQAMFDIEYFRKDPRPFFKFAKEIYPGQFQPSLCHKFIALSDKEGKLLRNYTQNIDTLEQVAGIQRILQCHGSFATASCLICKYKVDCEAVRGDIFNQVVPRCPRCPADEPLAIMKPEIVFFGENLPEQFHRAMKYDKDEVDLLIVIGSSLKVRPVALIPSSIPHEVPQILINREPLPHLHFDVELLGDCDVIINELCHRLGGEYAKLCCNPVKLSEITEKPPRPQKELVHLSELPPTPLHISEDSSSPERTVPQDSSVIATLVDQATNNNVNDLEVSESSCVEEKPQEVQTSRNVENINVENPDFKAVGSSTADKNERTSVAETVRKCWPNRLAKEQISKRLEGNQYLFVPPNRYIFHGAEVYSDSEDDVLSSSSCGSNSDSGTCQSPSLEEPLEDESEIEEFYNGLEDDTERPECAGGSGFGADGGDQEVVNEAIATRQELTDVNYPSDKS

These proteins were tested against histone H2B (calf thymus), P62808.
B1 was tested, and the “mono-ADP-ribosylation activity relative to wild type (Phosphorimaging)” value was “completely abolished the activity”. With B2 the “mono-ADP-ribosylation activity relative to wild type (Phosphorimaging)” value was “completely abolished the activity”. In the case of B3, the “mono-ADP-ribosylation activity relative to wild type (Phosphorimaging)” value is reported as “completely abolished the activity”. B4 was tested, and the “mono-ADP-ribosylation activity relative to wild type (Phosphorimaging)” value was “completely abolished the activity”. In the case of B5, the “mono-ADP-ribosylation activity relative to wild type (Phosphorimaging)” value is reported as “completely abolished the activity”. For B6, the “mono-ADP-ribosylation activity relative to wild type (Phosphorimaging)” value was “completely abolished the activity”. In the case of B7, the “ADP-ribosyl-transferase activity of the immune complex on Protein A-Sepharose beads” value is reported as “ADP-ribosyl-transferase activity could be detected for the endogenous mSir2α immunoprecipitated from NIH3T3 whole cell extracts”.
